The test system of test [1] is Human pluripotency stem cells. The test is described as follows: Mesoderm vs. endoderm induction in human pluripotent stem cell spheroids (FOXA2/HAND1 staining, first three days). Format: cell-based. The protocol: To recapitulate the gut tube organogenesis in vitro, a 3D suspension culture system to differentiate endoderm and mesoderm concomitantly from human iPSCs was established. By fine-tuning the dosage and timing of Wnt, Nodal (or TGF-b), and BMP activation, mesendoderm spheroids containing both definitive endodermal (DE, FOXA2+) and lateral plate mesoderm (LPM, HAND1+) populations were generated (FIG. 2A). It was also determined that ˜28 hours of the Wnt activation was a good duration for generating appropriate amounts of both DE and LPM populations from the iPSCs (approximately 1:1) (FIG. 2B). LPM derived splanchnic mesoderm (SM, FOXF1+) further gives rise to the mesenchyme surrounding the primitive gut tube. The SM will then differentiate into the connective tissue, smooth muscle cells (SMCs), and blood vessels of the endodermal organs.
• a) At Day −1, dissociate human iPSCs or human ESCs into single cells. • b) Using an Aggrewell plate (StemCell), or other compatible cell collection plate, generate spheroids of the pluripotent cells. Note: the number of cells in each microwell should be between 500-2000 cells. Accordingly, the spheroid diameter range should be from 50-200 μm. • c) Culture the cells in steady condition (37° C. cell incubator) overnight. Note: usually, the spheroid will form at day 0. […]

In the next test the test system is mesendoderm spheroids. The settings on record: 50 ng/mL, day 3 to day 7 (FIG. 3C). The text has this:
To form various organs properly, the endoderm transforms into a primitive gut tube and is then regionalized along the dorsal-ventral (D-V) and anterior-posterior (A-P) axis into foregut, midgut, and hindgut under the control of various signaling pathways: BMP and TGF-b inhibition facilitate foregut formation, while Wnt and FGF activation facilitate mid/hindgut development.

Another test has as its system Embryoid bodies (EBs). The test is described as follows: Single-cell RNA-seq of Day 3 meso/endoderm organoids. The conditions noted are these: accumulated stimulation (0, 1, 2, and 3 days), scRNA-seq at day 3 (FIG. 16E). Format: cell-based, human. An excerpt:
Embryoid bodies (EBs) receiving various duration of BMP4 stimulation (0, 1, 2, and 3 days) were subjected to single-cell RNA-seq at day 3 (FIG. 16A). They contained both mesoderm and endoderm populations. FIG. 16B depicts a feature plot of cell distributions under different BMP4 treatment durations. FIG. 16C depicts clustering of d3 meso/endoderm based on marker genes. FIG. 16D depicts a reference map comparison of d3 meso/endoderm to CS7 gastrulation human embryo AM: Advanced mesoderm; EM: Emergent mesoderm; PS: Primitive Streak. FIG. 16E depicts a cluster projection of day 3 meso/endoderm organoids to mouse early gastrulation embryos. i. UMAP of mouse E6.5˜E8.5 embryos. ii. Reverse projection of day 3 organoids to mouse embryos map.

Test [2] deals with human vascularized gut tube organoids. Nature of the test: Single-cell RNA-seq of Day 7 vascularized foregut and mid/hindgut organoids, reverse projection to mouse E8.75 gut tube atlas. Format: cell-based. An excerpt: FIG. 17A depicts representative UMAP projection of foregut organoid (1-day treatment of BMP4 from day 1-3) and mid/hindgut organoid (3-days treatment of BMP4 from day 1-3). FIG. 17B-D depict reverse projection of human vascularized gut tube organoids to mouse E8.75 gut tube atlas. FIG. 17B depicts mouse E8.75 embryonic gut tube containing both anterior (A) and posterior (P) portion. Gut tube (endoderm), mesenchyme, and endothelium populations are segregated into A-P subclusters. FIG. 17C depicts Day 7 foregut organoid reverse projection to mouse E8.75 gut tube. […] FIG. 17D depicts Day 7 mid/hindgut organoid reverse projection to mouse E8.75 tube.

As for `Cc1c[nH]c(-c2cnc(NCCNc3ccc(C#N)cn3)nc2-c2ccc(Cl)cc2Cl)n1` [CHIR99201, reference compound], the mesoderm/endoderm ratio entry in test [1] (Activation of Wnt under different durations, first three days (FIG. 14A)) was “drastically changed mesoderm/endoderm ratio”.

Regarding VEGF, in the test on mesendoderm spheroids, the “vascular network (CD31+) surrounding the FOXA2+ epithelial layer” value is listed as “a significant amount of a vascular network (CD31+)”.

B1: BMP4: BMP pathway activator, BMP protein (protein, UniProt P12644 293-408, looked up)
Bone morphogenetic protein 4: SPKHHSQRARKKNKNCRRHSLYVDFSDVGWNDWIVAPPGYQAFYCHGDCPFPLADHLNSTNHAIVQTLVNSVNSSIPKACCVPTELSAISMLYLDEYDKVVLKNYQEMVVEGCGCR
For B1, in the test on Embryoid bodies (EBs), the mesenchymal population result is reported as “augmented mesenchymal population” and the neural lineage result was “reduced neural lineage”. For the same molecule, the “anterior gut tube endoderm and endothelium populations” value in test [2] (Day 7 foregut organoid, one-day treatment compared to no BMP4 (FIG. 17C)) is “generated purer anterior gut tube endoderm and more anterior endothelium”. Further, the “posterior gut tube endoderm, mesenchyme, and endothelium populations” value in test [2] (Day 7 mid/hindgut organoid, longer treatment during the first three-day differentiation (FIG. 17D)) is “induced more posterior gut tube endoderm, mesenchyme, and endothelium”. For the same molecule, the mesoderm/endoderm ratio entry in test [1] (Prolonged treatment (FIG. 14B)) is reported as “increased mesoderm/endoderm ratio”.

Values taken from US20240318146A1, “VASCULARIZED ORGANOIDS” (CHILDREN’S HOSPITAL MEDICAL CENTER, priority 2021, published 2024).
